Results: the supplement of paper PMC10724198
± gives the standard deviation of the averaged measurements.

test system: Saccharomyces cerevisiae; assay: protein stability index of tFT-peptide fusion (C-terminal peptide) (PSI (0-1 scale)); higher = more stable (slower turnover); settings: genetic background: wild type; temperature: 30 C
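Further: PSI is a weighted mean of sequencing reads over stability bins, variants kept only with over 10 reads, mCherry proximal and sfGFP distal, peptide attached via GGGS linker.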

Sequence | protein stability index
PAPPPPPPTTVL | 0.691 ± 0.03
LGGLRRGSGREG | 0.678 ± 0.015
NWAPRCCIGNII | 0.669 ± 0.12
RPSPSLPSPSPP | 0.843 ± 0.081
DAAVQSGGRVAG | 0.481 ± 0.03
VRRGCGVGACPG | 0.618 ± 0.017
SCGVTRVGALST | 0.664 ± 0.013
SCIRATGSNVSP | 0.664 ± 0.029
TSPAPYPRPPPT | 0.723 ± 0.036
STSACPTPRTCS | 0.6192 ± 0.001
VGMGAWVQQIVL | 0.666 ± 0.043
PSPRPAPPPPPP | 0.707 ± 0.054
ICHLTIFHLRRL | 0.6151 ± 0.0037
VFVRVVGDLRWE | 0.578 ± 0.045
SRGIRPYYRLLL | 0.596 ± 0.0094
QTPRYRGLFSAL | 0.639 ± 0.038
PSPHRELNESHE | 0.674 ± 0.045
GGRNGLGITGGE | 0.648 ± 0.034
PSSPLFLPPPPP | 0.696 ± 0.023
GGPAWGRVGMYW | 0.666 ± 0.047
GGYGEGAVLFVG | 0.58 ± 0.012
PHPSATPTPVPP | 0.7001 ± 0.0017
PGKSGRKLVSSG | 0.681 ± 0.012
PHAAERRKPCAP | 0.768 ± 0.011
TIGVTCSRLGRG | 0.685 ± 0.014
IVMGVGCYTGRP | 0.74 ± 0.036

Sequence | protein stability index
PAPPPPPPPLYP | 0.718 ± 0.013
QCNGDEKKKLYK | 0.609 ± 0.022
TKERERAAGKKT | 0.7005 ± 0.0067
PETIIENIMKRR | 0.688 ± 0.22
YSGNPGVRGFHG | 0.69 ± 0.073
PSPSAFLPCRLD | 0.791 ± 0.094
GKDSSTASNRYT | 0.688 ± 0.027
TLPSRSPAPLPH | 0.643 ± 0.021
KTKKKYENRKKK | 0.684 ± 0.0094
SGLGRLRSGRVL | 0.698 ± 0.012
CWVHGRWVSGAS | 0.813 ± 0.051
SSCGTITYLTPY | 0.745 ± 0.015
WLPSSLPPIVHH | 0.662 ± 0.018
SYRWAFPGVFSG | 0.678 ± 0.031
WFFSNLRRDCGG | 0.735 ± 0.016
TTQTYAPLTPHR | 0.64 ± 0.097
RAPFEGLRCRTG | 0.66 ± 0.033
IGRGAPPGWVGA | 0.704 ± 0.02
DDGRRRAERGGG | 0.685 ± 0.047
VAPPRLSHGAPY | 0.545 ± 0.061
SHPRHSHLPFSP | 0.725 ± 0.079
GGSSLSSSSVIR | 0.675 ± 0.036
QTKAGKRKEKRE | 0.72 ± 0.12
PTPCCFPHPPPT | 0.709 ± 0.02
SSEGTRTLIPPD | 0.7 ± 0.011
GVACEGRGGRCW | 0.689 ± 0.012

Sequence | protein stability index
CPPTPSPSTLPT | 0.663 ± 0.016
QQKYKLIQLVII | 0.584 ± 0.017
LRHLPHPTCSLL | 0.7 ± 0.06
GQQETIGLRAHI | 0.681 ± 0.025
WFHPAPLCGPQS | 0.662 ± 0.063
PTPPPLTPPPCF | 0.678 ± 0.014
SGSGLRIIRSSP | 0.657 ± 0.011
RPPGPPPPAPFP | 0.711 ± 0.015
VTGIDGGSLCLR | 0.6842 ± 0.0059
GFGVAGLVGKGV | 0.662 ± 0.053
SGAGRRMGGARE | 0.657 ± 0.051
SLRPPSTFRRSC | 0.71 ± 0.019
GGSGPSGSPRRR | 0.727 ± 0.054
CGHAGQTPRTSR | 0.718 ± 0.065
SPPLPPPSPTPP | 0.699 ± 0.016
IKPTRKKTISTR | 0.715 ± 0.095
TGVRTVCDVGRW | 0.6648 ± 0.004
GGGWCSGYLAGV | 0.679 ± 0.056
YCFRFGLLIFGD | 0.548 ± 0.01
KKNKKQDDKKRQ | 0.645 ± 0.039
GSWGRPAGFSRR | 0.651 ± 0.028
GSSVGVAGLRGR | 0.656 ± 0.029
GVGGGGIGVGMG | 0.7262 ± 0.0018
RERVQYICYERR | 0.695 ± 0.086
PSPPPPSLPPPP | 0.67 ± 0.15
CVGSVRYRIRGS | 0.63 ± 0.06

Sequence | protein stability index
FIVGIQTKPVKL | 0.661 ± 0.11
AQTPNPEPLENN | 0.699 ± 0.033
HVSPSPYPPGYP | 0.697 ± 0.026
CCFFPSLRSPSF | 0.726 ± 0.011
TSDVGWVPAGSE | 0.656 ± 0.043
CLTRFFQPYGSL | 0.667 ± 0.059
SNQKLLGQDIDN | 0.659 ± 0.024
LLGFRLACTSGA | 0.648 ± 0.0079
AWVLVVLGSSHR | 0.586 ± 0.05
YNGVGGLKPEPC | 0.658 ± 0.049
GIGVVVLGGCTR | 0.706 ± 0.056
SPPPHPPLRFLP | 0.667 ± 0.049
PLLPILTSPPRR | 0.71 ± 0.029
IGFHGALPGICL | 0.663 ± 0.054
PSPFPPPSHPSP | 0.695 ± 0.0041
GRILGEGWVCVV | 0.663 ± 0.087
KELRYKKDRKKK | 0.689 ± 0.026
QQVRHNVKRVVL | 0.7222 ± 0.0025
SSKLFVVLPVSR | 0.599 ± 0.028
CLSAPFRSLLFL | 0.585 ± 0.051
APPPPPPDPPLP | 0.685 ± 0.011
SCQISVRLHVSH | 0.612 ± 0.016
PLLEGRRRKSGG | 0.635 ± 0.02
